This passage reports IC50 results from US20160272683A1 (Novo Nordisk, published 2016).

Numbered stars: 1 amine (or outer) side, 2 acyl side, 3 side chain; on linkers, the order of the positions; unused ones are H or OH. * marks the point of attachment. C20 diacid = O=C(O)CCCCCCCCCCCCCCCCCCC(=O)*; γGlu = O=C(O)[C@H](CCC(=O)[*:2])N[*:1]

Sequences and labels used below:
B1: [N-terminal(C20 diacid-gGlu), des1, 4G, 9V, 12K, 15Q, 21Q, 23Y, 25P, 30S, 31G, 32T, 33Y]mimylin (peptide)
peptide: {C20 diacid-γGlu}-ASGLSTAVLGKLSQELHELQTYPPTETGSGTY-NH2
SMILES: CC(C)C[C@H](NC(=O)CNC(=O)[C@H](CO)NC(=O)[C@H](C)NC(=O)CC[C@H](NC(=O)CCCCCCCCCCCCCCCCCCC(=O)O)C(=O)O)C(=O)N[C@@H](CO)C(=O)N[C@H](C(=O)N[C@@H](C)C(=O)N[C@H](C(=O)N[C@@H](CC(C)C)C(=O)NCC(=O)N[C@@H](CCCCN)C(=O)N[C@@H](CC(C)C)C(=O)N[C@@H](CO)C(=O)N[C@@H](CCC(N)=O)C(=O)N[C@@H](CCC(=O)O)C(=O)N[C@@H](CC(C)C)C(=O)N[C@@H](Cc1c[nH]cn1)C(=O)N[C@@H](CCC(=O)O)C(=O)N[C@@H](CC(C)C)C(=O)N[C@@H](CCC(N)=O)C(=O)N[C@H](C(=O)N[C@@H](Cc1ccc(O)cc1)C(=O)N1CCC[C@H]1C(=O)N1CCC[C@H]1C(=O)N[C@H](C(=O)N[C@@H](CCC(=O)O)C(=O)N[C@H](C(=O)NCC(=O)N[C@@H](CO)C(=O)NCC(=O)N[C@H](C(=O)N[C@@H](Cc1ccc(O)cc1)C(N)=O)[C@@H](C)O)[C@@H](C)O)[C@@H](C)O)[C@@H](C)O)C(C)C)[C@@H](C)O
notes: mimylin derivative; des1 = residue 1 deleted
B2: [N-terminal(C20 diacid-gGlu), des1, 4G, 15Q, 21Q, 23Y, 30S, 31Q, 32T, 33Y]mimylin (peptide)
peptide: {C20 diacid-γGlu}-ASGLSTAALGRLSQELHELQTYPRTETGSQTY-NH2
SMILES: CC(C)C[C@H](NC(=O)CNC(=O)[C@H](CO)NC(=O)[C@H](C)NC(=O)CC[C@H](NC(=O)CCCCCCCCCCCCCCCCCCC(=O)O)C(=O)O)C(=O)N[C@@H](CO)C(=O)N[C@H](C(=O)N[C@@H](C)C(=O)N[C@@H](C)C(=O)N[C@@H](CC(C)C)C(=O)NCC(=O)N[C@@H](CCCNC(=N)N)C(=O)N[C@@H](CC(C)C)C(=O)N[C@@H](CO)C(=O)N[C@@H](CCC(N)=O)C(=O)N[C@@H](CCC(=O)O)C(=O)N[C@@H](CC(C)C)C(=O)N[C@@H](Cc1c[nH]cn1)C(=O)N[C@@H](CCC(=O)O)C(=O)N[C@@H](CC(C)C)C(=O)N[C@@H](CCC(N)=O)C(=O)N[C@H](C(=O)N[C@@H](Cc1ccc(O)cc1)C(=O)N1CCC[C@H]1C(=O)N[C@@H](CCCNC(=N)N)C(=O)N[C@H](C(=O)N[C@@H](CCC(=O)O)C(=O)N[C@H](C(=O)NCC(=O)N[C@@H](CO)C(=O)N[C@@H](CCC(N)=O)C(=O)N[C@H](C(=O)N[C@@H](Cc1ccc(O)cc1)C(N)=O)[C@@H](C)O)[C@@H](C)O)[C@@H](C)O)[C@@H](C)O)[C@@H](C)O
notes: as for B1
B3: [N-terminal(C20 diacid-gGlu), des1, 9V, 15Q, 21Q, 23Y, 30S, 31G, 32T, 33Y]mimylin (peptide)
peptide: {C20 diacid-γGlu}-ASELSTAVLGRLSQELHELQTYPRTETGSGTY-NH2
SMILES: CC(C)C[C@H](NC(=O)[C@H](CCCNC(=N)N)NC(=O)CNC(=O)[C@H](CC(C)C)NC(=O)[C@@H](NC(=O)[C@H](C)NC(=O)[C@@H](NC(=O)[C@H](CO)NC(=O)[C@H](CC(C)C)NC(=O)[C@H](CCC(=O)O)NC(=O)[C@H](CO)NC(=O)[C@H](C)NC(=O)CC[C@H](NC(=O)CCCCCCCCCCCCCCCCCCC(=O)O)C(=O)O)[C@@H](C)O)C(C)C)C(=O)N[C@@H](CO)C(=O)N[C@@H](CCC(N)=O)C(=O)N[C@@H](CCC(=O)O)C(=O)N[C@@H](CC(C)C)C(=O)N[C@@H](Cc1c[nH]cn1)C(=O)N[C@@H](CCC(=O)O)C(=O)N[C@@H](CC(C)C)C(=O)N[C@@H](CCC(N)=O)C(=O)N[C@H](C(=O)N[C@@H](Cc1ccc(O)cc1)C(=O)N1CCC[C@H]1C(=O)N[C@@H](CCCNC(=N)N)C(=O)N[C@H](C(=O)N[C@@H](CCC(=O)O)C(=O)N[C@H](C(=O)NCC(=O)N[C@@H](CO)C(=O)NCC(=O)N[C@H](C(=O)N[C@@H](Cc1ccc(O)cc1)C(N)=O)[C@@H](C)O)[C@@H](C)O)[C@@H](C)O)[C@@H](C)O
notes: as for B1
B4: [N-terminal(C20 diacid-gGlu), des1, 4G, 15Q, 21Q, 23Y, 25H, 30S, 31G, 32T, 33Y]mimylin (peptide)
peptide: {C20 diacid-γGlu}-ASGLSTAALGRLSQELHELQTYPHTETGSGTY-NH2
SMILES: CC(C)C[C@H](NC(=O)CNC(=O)[C@H](CO)NC(=O)[C@H](C)NC(=O)CC[C@H](NC(=O)CCCCCCCCCCCCCCCCCCC(=O)O)C(=O)O)C(=O)N[C@@H](CO)C(=O)N[C@H](C(=O)N[C@@H](C)C(=O)N[C@@H](C)C(=O)N[C@@H](CC(C)C)C(=O)NCC(=O)N[C@@H](CCCNC(=N)N)C(=O)N[C@@H](CC(C)C)C(=O)N[C@@H](CO)C(=O)N[C@@H](CCC(N)=O)C(=O)N[C@@H](CCC(=O)O)C(=O)N[C@@H](CC(C)C)C(=O)N[C@@H](Cc1c[nH]cn1)C(=O)N[C@@H](CCC(=O)O)C(=O)N[C@@H](CC(C)C)C(=O)N[C@@H](CCC(N)=O)C(=O)N[C@H](C(=O)N[C@@H](Cc1ccc(O)cc1)C(=O)N1CCC[C@H]1C(=O)N[C@@H](Cc1c[nH]cn1)C(=O)N[C@H](C(=O)N[C@@H](CCC(=O)O)C(=O)N[C@H](C(=O)NCC(=O)N[C@@H](CO)C(=O)NCC(=O)N[C@H](C(=O)N[C@@H](Cc1ccc(O)cc1)C(N)=O)[C@@H](C)O)[C@@H](C)O)[C@@H](C)O)[C@@H](C)O)[C@@H](C)O
notes: as for B1
B5: [N-terminal(C20 diacid-gGlu), des1, 4G, 9V, 15Q, 21Q, 23Y, 30S, 31Q, 32T, 33Y]mimylin (peptide)
peptide: {C20 diacid-γGlu}-ASGLSTAVLGRLSQELHELQTYPRTETGSQTY-NH2
SMILES: CC(C)C[C@H](NC(=O)CNC(=O)[C@H](CO)NC(=O)[C@H](C)NC(=O)CC[C@H](NC(=O)CCCCCCCCCCCCCCCCCCC(=O)O)C(=O)O)C(=O)N[C@@H](CO)C(=O)N[C@H](C(=O)N[C@@H](C)C(=O)N[C@H](C(=O)N[C@@H](CC(C)C)C(=O)NCC(=O)N[C@@H](CCCNC(=N)N)C(=O)N[C@@H](CC(C)C)C(=O)N[C@@H](CO)C(=O)N[C@@H](CCC(N)=O)C(=O)N[C@@H](CCC(=O)O)C(=O)N[C@@H](CC(C)C)C(=O)N[C@@H](Cc1c[nH]cn1)C(=O)N[C@@H](CCC(=O)O)C(=O)N[C@@H](CC(C)C)C(=O)N[C@@H](CCC(N)=O)C(=O)N[C@H](C(=O)N[C@@H](Cc1ccc(O)cc1)C(=O)N1CCC[C@H]1C(=O)N[C@@H](CCCNC(=N)N)C(=O)N[C@H](C(=O)N[C@@H](CCC(=O)O)C(=O)N[C@H](C(=O)NCC(=O)N[C@@H](CO)C(=O)N[C@@H](CCC(N)=O)C(=O)N[C@H](C(=O)N[C@@H](Cc1ccc(O)cc1)C(N)=O)[C@@H](C)O)[C@@H](C)O)[C@@H](C)O)[C@@H](C)O)C(C)C)[C@@H](C)O
notes: as for B1

The first assay has as its target T1, human calcitonin receptor (human, UniProt P30988 25-474).
T1 construct: whole, on cells; Assay VII: membranes on SPA beads; also called hCT-R; hCTR
T1 sequence (looked up): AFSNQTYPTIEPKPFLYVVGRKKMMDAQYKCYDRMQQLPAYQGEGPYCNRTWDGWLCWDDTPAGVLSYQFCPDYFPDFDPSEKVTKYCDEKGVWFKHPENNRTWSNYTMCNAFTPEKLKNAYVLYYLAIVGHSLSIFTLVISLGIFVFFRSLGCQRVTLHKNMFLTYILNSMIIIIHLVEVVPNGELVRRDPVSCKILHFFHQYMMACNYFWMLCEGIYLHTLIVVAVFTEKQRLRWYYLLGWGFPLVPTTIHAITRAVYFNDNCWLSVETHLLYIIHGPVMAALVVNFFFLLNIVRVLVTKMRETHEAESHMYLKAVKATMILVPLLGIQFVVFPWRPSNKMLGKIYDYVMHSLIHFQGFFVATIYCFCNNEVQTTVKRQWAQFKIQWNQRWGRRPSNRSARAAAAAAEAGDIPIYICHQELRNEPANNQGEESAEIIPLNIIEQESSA
In words: SPA competition vs 125I-calcitonin, membranes with human CTR (Assay VII). An outline of the steps: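 SPA competition on membranes from BHK tk'ts 13 cells stably expressing human calcitonin receptor plus CRE-luciferase reporter; membranes 35 ng/μL final with 0.05 mg/well beads.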
For B1, the IC50 is 0.651 nM.
On the same count and under the same terms, to B2 belongs 0.051 nM; to B3, 0.085 nM.
Still for that read-out and setting: the result for B4 reads 0.15 nM; that for B5, 0.067 nM.

For another assay, the target named is T2, human amylin receptor (amylin 3(a) receptor: human calcitonin receptor with RAMP-3) (human, UniProt P30988 25-474; O60896 24-148, limits assumed).
T2 construct: whole, on cells; Assay V: membranes of the Amylin 3(a)/CRE-luc BHK cells on SPA beads; also called hAmylin-R
T2 sequence (looked up) 1: T1 sequence (looked up)
T2 sequence (looked up) 2: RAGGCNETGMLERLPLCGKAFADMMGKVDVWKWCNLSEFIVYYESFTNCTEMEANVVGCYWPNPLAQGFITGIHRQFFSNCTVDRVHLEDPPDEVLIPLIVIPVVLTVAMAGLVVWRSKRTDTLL
Briefly: SPA competition vs 125I-rat amylin, membranes with human CTR + RAMP-3 (Assay V).
As to B1, the half-maximal inhibitory concentration (IC50) stood at 0.72 nM.
On the same count and under the same terms, the result for B2 reads 0.131 nM; that for B3, 0.297 nM; that for B4, 0.166 nM.
Same read-out and setting: the result for B5 reads 0.152 nM.

For orientation: IC50 means the concentration at which inhibition is half-maximal.
